Experimental data: patent US20100048482

Molecular target: heat shock protein 90 (HSP90), endogenous, rat heart, P82995

B1: epsilon protein kinase C (εPKC), endogenous, rat heart (protein)
chain: MVVFNGLLKIKICEAVSLKPTAWSLRHAVGPRPQTFLLDPYIALNVDDSRIGQTATKQKTNSPAWHDEFVTDVCNGRKIELAVFHDAPIGYDDFVANCTIQFEELLQNGSRHFEDWIDLEPEGKVYVIIDLSGSSGEAPKDNEERVFRERMRPRKRQGAVRRRVHQVNGHKFMATYLRQPTYCSHCRDFIWGVIGKQGYQCQVCTCVVHKRCHELIITKCAGLKKQETPDEVGSQRFSVNMPHKFGIHNYKVPTFCDHCGSLLWGLLRQGLQCKVCKMNVHRRCETNVAPNCGVDARGIAKVLADLGVTPDKITNSGQRRKKLAAGAESPQPASGNSPSEDDRSKSAPTSPCDQELKELENNIRKALSFDNRGEEHRASSSTDGQLASPGENGEVRQGQAKRLGLDEFNFIKVLGKGSFGKVMLAELKGKDEVYAVKVLKKDVILQDDDVDCTMTEKRILALARKHPYLTQLYCCFQTKDRLFFVMEYVNGGDLMFQIQRSRKFDEPRSGFYAAEVTSALMFLHQHGVIYRDLKLDNILLDAEGHSKLADFGMCKEGILNGVTTTTFCGTPDYIAPEILQELEYGPSVDWWALGVLMYEMMAGQPPFEADNEDDLFESILHDDVLYPVWLSKEAVSILKAFMTKNPHKRLGCVAAQNGEDAIKQHPFFKEIDWVLLEQKKMKPPFKPRIKTKRDVNNFDQDFTREEPILTLVDEAIVKQINQEEFKGFSYFGEDLMP
**Q.** B1 was tested. Which “CPK release into the effluent during reperfusion, hearts perfused with ψεHSP90 peptide (1 µM)” value did it give?
**A.** perfusion with ψεHSP90 peptide decreased CPK release by 47%
